Laboratory results: patent US20090136516A1 (DUKE UNIVERSITY, published 2009)
Substitutions are numbered along the chain they refer to.

How the values were obtained:
human CD20 [1] = target: T1, human CD20 (human, UniProt P11836 1-297); assay: indirect immunofluorescence, flow cytometry, DHL-4 cells, saturating mAb
T1 construct: whole, on cells; also called cell surface CD20
T1 sequence (looked up): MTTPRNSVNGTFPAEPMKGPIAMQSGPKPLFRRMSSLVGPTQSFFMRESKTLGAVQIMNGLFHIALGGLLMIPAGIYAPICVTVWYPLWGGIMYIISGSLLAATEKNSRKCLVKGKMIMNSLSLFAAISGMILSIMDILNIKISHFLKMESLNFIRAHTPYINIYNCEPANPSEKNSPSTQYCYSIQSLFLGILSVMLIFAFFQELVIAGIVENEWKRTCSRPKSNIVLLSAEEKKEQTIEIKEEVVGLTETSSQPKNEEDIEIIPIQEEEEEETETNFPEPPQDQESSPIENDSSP
Procedure: (§1) Reactivity of human blood lymphocytes and the Raji, BJAB or DHL-4 B lymphoblastoid cell lines with anti-CD20 monoclonal antibodies at saturating concentrations or with secondary antibody alone (control). The anti-CD20 monoclonal antibodies were used at concentrations that were determined to be saturating and that gave optimal staining. 1F5, B9E9 and 1H4 (IgG2a) monoclonal antibodies were used as ascites fluid diluted 1:200. HB20-3, -4 and -25 monoclonal antibodies were used as tissue culture supernatant fluid. B1 monoclonal antibody was used at either 10 μg/mL of purified monoclonal antibody or as tissue culture supernatant fluid. In all cases, monoclonal antibody staining was visualized using PE-conjugated isotype-specific secondary antibodies with flow cytometry analysis. Values represent the mean linear fluorescence intensity of staining for each B cell population as determined by flow cytometry analysis. Results are representative of those obtained in ≧3 experiments.

human CD20 [2] = target: T1, human CD20; assay: indirect immunofluorescence, flow cytometry, Raji cells, saturating mAb
Procedure: as §1

human CD20 [3] = target: T1, human CD20; assay: indirect immunofluorescence, flow cytometry, human blood B cells, saturating mAb
Procedure: as §1

human CD20 [4] = target: T1, human CD20; assay: indirect immunofluorescence, flow cytometry, BJAB cells, saturating mAb
Procedure: as §1

mouse CD20 [5] = target: T2, mouse CD20 (mouse, UniProt P19437 1-291); assay: flow cytometry, mouse spleen CD19+ B cells, control staining (background)
T2 construct: whole, on cells; Endogenous mouse CD20 on primary B cells; also called cell-surface CD20
T2 sequence (looked up): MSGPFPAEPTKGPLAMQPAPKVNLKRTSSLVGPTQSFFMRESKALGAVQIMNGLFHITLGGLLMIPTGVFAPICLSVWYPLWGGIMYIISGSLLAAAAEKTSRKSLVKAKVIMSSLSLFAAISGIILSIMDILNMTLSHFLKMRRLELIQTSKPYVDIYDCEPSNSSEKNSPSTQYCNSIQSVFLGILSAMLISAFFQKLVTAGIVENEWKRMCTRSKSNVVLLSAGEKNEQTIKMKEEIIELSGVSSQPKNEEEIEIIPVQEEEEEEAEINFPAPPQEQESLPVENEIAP

human CD20 [6] = target: T1, human CD20; assay: flow cytometry, BJAB cells, secondary antibody alone (background)
human CD20 [7] = target: T1, human CD20; assay: flow cytometry, Raji cells, secondary antibody alone (background)
human CD20 [8] = target: T1, human CD20; assay: flow cytometry, DHL-4 cells, secondary antibody alone (background)
human CD20 [9] = target: T1, human CD20; assay: flow cytometry, human blood B cells, secondary antibody alone (background)
mouse CD20 (mouse) = target: T3, mouse CD20 (mouse) (UniProt P19437); assay: flow cytometry, mouse spleen CD19+ B cells, mAb at 0.5 µg/mL, isotype-specific secondary antibody
T3 sequence (looked up): T2 sequence (looked up)

mouse CD20 [10] = target: T2, mouse CD20; assay: as above
Procedure: Twelve mouse anti-mouse CD20 monoclonal antibodies, with representatives of each IgG isotype, were assessed for their ability to bind B cells and deplete them in vivo. Each monoclonal antibody reacted uniformly with CD19⁺ primary B cells in vitro with characteristic mean fluorescence intensities that were independent of monoclonal antibody isotype (FIG. 6A). When monoclonal antibody reactivity with primary B cells was assessed over a range of monoclonal antibody concentrations, most monoclonal antibodies reached saturating levels of staining when used at concentrations between 1-10 μg/mL (FIG. 6B). […] When all monoclonal antibodies were used at 0.5 μg/mL, each monoclonal antibody reacted uniformly with CD19⁺ primary B cells with characteristic low to high mean fluorescence intensities (FIG. 6C, Table 5). Similar results were obtained using a mouse CD20 cDNA-transfected pre-B cell line with anti-mouse Ig secondary antibody. Based on this analysis, the MB20-1 monoclonal antibody represented monoclonal antibodies with the lowest relative affinity/avidity, while the MB20-18 monoclonal antibody reacted strongly with B cells and stained B cells at the highest levels of all 12 anti-CD20 monoclonal antibodies (Table 5).

B1 anti-CD20 monoclonal antibody
mean linear fluorescence intensity (mean linear fluorescence intensity) (human CD20 [1]): 486
mean linear fluorescence intensity (mean linear fluorescence intensity) (human CD20 [2]): 944
mean linear fluorescence intensity (mean linear fluorescence intensity) (human CD20 [3]): 277
mean linear fluorescence intensity (mean linear fluorescence intensity) (human CD20 [4]): 700

isotype-matched control monoclonal antibodies (antibody)
B cell reactivity (mean linear fluorescence intensity) (mean linear fluorescence intensity) (mouse CD20 [5]): < 6

secondary antibody alone (control)
mean linear fluorescence intensity (mean linear fluorescence intensity) (human CD20 [6]): 10
mean linear fluorescence intensity (mean linear fluorescence intensity) (human CD20 [7]): 3
mean linear fluorescence intensity (mean linear fluorescence intensity) (human CD20 [8]): 1
mean linear fluorescence intensity (mean linear fluorescence intensity) (human CD20 [9]): 1

B1: 1F5 anti-CD20 monoclonal antibody (antibody, V domains shown)
VH: QVQLRQPGAELVKPGASVKMSCKASGYTFTSYNMHWVKQTPGQGLEWIGAIYPGNGDTSYNQKFKGKATLTADKSSSTAYMQLSSLTSEDSAVYYCARSHYGSNYVDYFDYWGQGTTLTVSS
VL: DIVLSQSPAILSASPGEKVTMTCRASSSLSFMHWYQQKPGSSPKPWIYATSNLASGVPARFSGSGSGTSYSLTISRVEAEDAATYFCHQWSSNPLTFGAGTKLELK
mean linear fluorescence intensity (human CD20 [1]): 169 mean linear fluorescence intensity
mean linear fluorescence intensity (human CD20 [2]): 455 mean linear fluorescence intensity
mean linear fluorescence intensity (human CD20 [3]): 104 mean linear fluorescence intensity
mean linear fluorescence intensity (human CD20 [4]): 386 mean linear fluorescence intensity

B2: B9E9 anti-CD20 monoclonal antibody (antibody, V domains shown)
VH: QVQLVQSGAELVKPGASVKMSCKASGYTFTSYNMHWVKQTPGQGLEWIGAIYPGNGDTSYNQKFKGKATLTADKSSSTAYMQLSSLTSEDSAVYYCARAQLRPNYWYFDVWGAGTTVTVSS
VL: B1 VL with L29V, F31Y, F86Y, H88Q, S91I, L95P
mean linear fluorescence intensity (human CD20 [1]): 162 mean linear fluorescence intensity
mean linear fluorescence intensity (human CD20 [2]): 438 mean linear fluorescence intensity
mean linear fluorescence intensity (human CD20 [3]): 112 mean linear fluorescence intensity
mean linear fluorescence intensity (human CD20 [4]): 377 mean linear fluorescence intensity

B3: 1H4 (IgG2a) anti-CD20 monoclonal antibody (antibody)
chain 1: QVQLQQPGAELVKPGASVKMSCKTSGYTFTSYNVHWVKQTPGQGLEWIGAIYPGNGDTSFNQKFKGKATLTADKSSSTVYMQLSSLTSEDSAVYYCARSNYYGSSYVWFFDVWGAGTTGTGSS
chain 2: B1 VL with D1Q, A9T, L29V, F31Y, H33D, F86Y, H88Q, S91I, L95P
mean linear fluorescence intensity (human CD20 [1]): 98 mean linear fluorescence intensity
mean linear fluorescence intensity (human CD20 [2]): 244 mean linear fluorescence intensity
mean linear fluorescence intensity (human CD20 [3]): 75 mean linear fluorescence intensity
mean linear fluorescence intensity (human CD20 [4]): 240 mean linear fluorescence intensity

B4: HB20-3 monoclonal antibody (antibody, V domains shown)
VH: EVQLQESGAELVKPGASVKMSCKASGFTFTNYNMHWLKQTPGQGLEWIGAIYPENGDTSYNQKFKGKATLTADKASSTAYMHLSSLTSEDSAVYFCARFYYYGSYYGAMDYWGQGTSVTVSS
VL: DIQMTQSPASLSASVGETVTITCRASGNIHNYLAWYQQKQGKSPQLLVYNAKTLADGVPSRFSGSGSGTQFSLKINSLQPEDFGSYYCQHFWSTPWTFGGGTKLEIKR
notes: Used as tissue culture supernatant; also called HB20-03; HB13c
mean linear fluorescence intensity (human CD20 [1]): 765 mean linear fluorescence intensity
mean linear fluorescence intensity (human CD20 [2]): 2220 mean linear fluorescence intensity
mean linear fluorescence intensity (human CD20 [3]): 469 mean linear fluorescence intensity
mean linear fluorescence intensity (human CD20 [4]): 1200 mean linear fluorescence intensity

B5: HB20-4 monoclonal antibody (antibody, V domains shown)
VH: B4 VH with L37V, K63R, A75S, S91T, M109L
VL: B4 VL with N28S, Q40L, T94I
notes: Used as tissue culture supernatant; also called HB20-04; HB13d
mean linear fluorescence intensity (human CD20 [1]): 578 mean linear fluorescence intensity
mean linear fluorescence intensity (human CD20 [2]): 1580 mean linear fluorescence intensity
mean linear fluorescence intensity (human CD20 [3]): 397 mean linear fluorescence intensity
mean linear fluorescence intensity (human CD20 [4]): 1100 mean linear fluorescence intensity

B6: HB20-25 monoclonal antibody (antibody, V domains shown)
VH: EVQLQESGAELVKPGASVKMSCKASGFRFTNYNLHWVKQTPGQGLEWIGAIYPGNGETSYNQKFKGKATLTADKSSSTAYMQLRSLTSGDSAVYYCARFYYYGSSYGAMDYWGQGTSVTVSS
VL: DIQMTQSPASLSVSVGETVTITCRASENIYSNLAWYQQKQGKSPQLLVYAATNLADGVPSRFSGSGSGTQYSLKINSLQSEDFGSYYCQHFWGIPWTFGGGTKLEIKR
notes: Used as tissue culture supernatant
mean linear fluorescence intensity (human CD20 [1]): 514 mean linear fluorescence intensity
mean linear fluorescence intensity (human CD20 [2]): 1350 mean linear fluorescence intensity
mean linear fluorescence intensity (human CD20 [3]): 227 mean linear fluorescence intensity
mean linear fluorescence intensity (human CD20 [4]): 849 mean linear fluorescence intensity

B7: MB20-16 monoclonal antibody (antibody, part only; not given: light chain, V domains shown, part only)
VH: EVQLQESGPELVKPGASVKMSCKASGYTFTDYNLHWVKQSHGQSLEWIGYINPNNGGATYNQKFTGKATLTVNRSSSTAYMELRSLTSDDSAVYYCAEIYDGYYWGQGTTLTVSS
B cell reactivity (mean linear fluorescence intensity) (mean linear fluorescence intensity) (mouse CD20 (mouse)): 170

B8: MB20-1 monoclonal antibody (antibody, V domains shown)
VH: EVQLQESGGGLVQPGGSLKLSCAASGFTFSDYGMAWVRQAPRKGPEWVAFISNLAYSIYYADTVTGRFTISRENAKNTLYLEMSSLRSEDTAMYFCTRTGYYALDYWGQGTSVTVSS
VL: NIMMTQSPSSLAVSAGEKVTMRCKSSQSVLYSSKRKNYLAWYQQKPGKSPTLLIYWASTRESGVPDRFTGSGSGTDFTLTITSVQAEDLAVYYCHQYLSSFTFGGGTKLEIKR
notes: Mouse anti-mouse CD20 hybridoma antibody, IgG1; also called MB20-01
B cell reactivity (mean linear fluorescence intensity) (mouse CD20 [10]): 69 mean linear fluorescence intensity

B9: MB20-13 monoclonal antibody (antibody, V domains shown)
VH: B8 VH
VL: EIVLAQSPTTTAASPGEKITITCSASSSITSNYLHWYQQKPGFSPKLLIYRTSNLASGVPARFSGSGSGTSYSLTIGTMEAEDVATYYCQQGSSKTLTFGAGTKLELKR
notes: Mouse anti-mouse CD20 hybridoma antibody, IgG3
B cell reactivity (mean linear fluorescence intensity) (mouse CD20 [10]): 603 mean linear fluorescence intensity

B10: MB20-18 monoclonal antibody (antibody, V domains shown)
VH: EVQLQESGLDLVKPGASVKISCKASGYTFTDYYMKWVKQSHGKSLDWIGDINPNNGDIIYNQKFEGKATLTVDKSSSTAYMELRSLTSEDSAVYYCARERFAYWGQGTLVTVSA
VL: SIVMTQTPKFLLVSTGDRVTITCKASQTVTNDLAWYQQKPGQSPKLLIYYASNRYTGVPDRFTGSGYGTDFTFTINTVQAEDLAVYFCQQDYSSPLTFGAGTKLELKR
notes: Mouse anti-mouse CD20 hybridoma antibody, IgG2b
B cell reactivity (mean linear fluorescence intensity) (mouse CD20 [10]): 729 mean linear fluorescence intensity

B11: MB20-10 monoclonal antibody (antibody, V domains shown)
VH: B10 VH with L9P
VL: B9 VL with A5T, T11M, A25V, S28N, T30R, E80K, K95I, T96P
notes: as for B10
B cell reactivity (mean linear fluorescence intensity) (mouse CD20 [10]): 317 mean linear fluorescence intensity

B12: MB20-8 monoclonal antibody (antibody, V domains shown)
VH: B10 VH with L9P
VL: B9 VL with A5T, T11M, A25V, S28N, T30R, E80K, K95I, T96P
notes: Mouse anti-mouse CD20 hybridoma antibody, IgG2b; also called MB20-08
B cell reactivity (mean linear fluorescence intensity) (mouse CD20 [10]): 240 mean linear fluorescence intensity

B13: MB20-14 monoclonal antibody (antibody, V domains shown)
VH: B10 VH with L9P, D10E, T28M, M34I, D46E, I58T, E65K, S77N, E82D, S85I
VL: B9 VL with A5T, T11M, A25V, T30R, I76V, G77A, K95I, T96P
notes: Mouse anti-mouse CD20 hybridoma antibody, IgG1
B cell reactivity (mean linear fluorescence intensity) (mouse CD20 [10]): 166 mean linear fluorescence intensity

B14: MB20-2 monoclonal antibody (antibody, V domains shown)
VH: B10 VH with L9P, D10E, T28M, M34I, D46E, I58T, E65K, S77N, E82D
VL: B9 VL with A5T, T11M, A25V, T30R, I76V, G77A, K95I, T96P
notes: Mouse anti-mouse CD20 hybridoma antibody, IgG1; also called MB20-02
B cell reactivity (mean linear fluorescence intensity) (mouse CD20 [10]): 209 mean linear fluorescence intensity

B15: MB20-7 monoclonal antibody (antibody, V domains shown)
VH: B10 VH with L9P, T28M, D46E, I58T, I59T
VL: B9 VL with I2L, A5T, T11K, A25V, T30R, K40R, K95L, T96P
notes: Mouse anti-mouse CD20 hybridoma antibody, IgG2b; also called MB20-07
B cell reactivity (mean linear fluorescence intensity) (mouse CD20 [10]): 525 mean linear fluorescence intensity
